{"source": "patent US20240293504A1", "molecular_target": "CD91 (mouse) (UniProt Q91ZX7)", "sequence (Q91ZX7 20-4545)": "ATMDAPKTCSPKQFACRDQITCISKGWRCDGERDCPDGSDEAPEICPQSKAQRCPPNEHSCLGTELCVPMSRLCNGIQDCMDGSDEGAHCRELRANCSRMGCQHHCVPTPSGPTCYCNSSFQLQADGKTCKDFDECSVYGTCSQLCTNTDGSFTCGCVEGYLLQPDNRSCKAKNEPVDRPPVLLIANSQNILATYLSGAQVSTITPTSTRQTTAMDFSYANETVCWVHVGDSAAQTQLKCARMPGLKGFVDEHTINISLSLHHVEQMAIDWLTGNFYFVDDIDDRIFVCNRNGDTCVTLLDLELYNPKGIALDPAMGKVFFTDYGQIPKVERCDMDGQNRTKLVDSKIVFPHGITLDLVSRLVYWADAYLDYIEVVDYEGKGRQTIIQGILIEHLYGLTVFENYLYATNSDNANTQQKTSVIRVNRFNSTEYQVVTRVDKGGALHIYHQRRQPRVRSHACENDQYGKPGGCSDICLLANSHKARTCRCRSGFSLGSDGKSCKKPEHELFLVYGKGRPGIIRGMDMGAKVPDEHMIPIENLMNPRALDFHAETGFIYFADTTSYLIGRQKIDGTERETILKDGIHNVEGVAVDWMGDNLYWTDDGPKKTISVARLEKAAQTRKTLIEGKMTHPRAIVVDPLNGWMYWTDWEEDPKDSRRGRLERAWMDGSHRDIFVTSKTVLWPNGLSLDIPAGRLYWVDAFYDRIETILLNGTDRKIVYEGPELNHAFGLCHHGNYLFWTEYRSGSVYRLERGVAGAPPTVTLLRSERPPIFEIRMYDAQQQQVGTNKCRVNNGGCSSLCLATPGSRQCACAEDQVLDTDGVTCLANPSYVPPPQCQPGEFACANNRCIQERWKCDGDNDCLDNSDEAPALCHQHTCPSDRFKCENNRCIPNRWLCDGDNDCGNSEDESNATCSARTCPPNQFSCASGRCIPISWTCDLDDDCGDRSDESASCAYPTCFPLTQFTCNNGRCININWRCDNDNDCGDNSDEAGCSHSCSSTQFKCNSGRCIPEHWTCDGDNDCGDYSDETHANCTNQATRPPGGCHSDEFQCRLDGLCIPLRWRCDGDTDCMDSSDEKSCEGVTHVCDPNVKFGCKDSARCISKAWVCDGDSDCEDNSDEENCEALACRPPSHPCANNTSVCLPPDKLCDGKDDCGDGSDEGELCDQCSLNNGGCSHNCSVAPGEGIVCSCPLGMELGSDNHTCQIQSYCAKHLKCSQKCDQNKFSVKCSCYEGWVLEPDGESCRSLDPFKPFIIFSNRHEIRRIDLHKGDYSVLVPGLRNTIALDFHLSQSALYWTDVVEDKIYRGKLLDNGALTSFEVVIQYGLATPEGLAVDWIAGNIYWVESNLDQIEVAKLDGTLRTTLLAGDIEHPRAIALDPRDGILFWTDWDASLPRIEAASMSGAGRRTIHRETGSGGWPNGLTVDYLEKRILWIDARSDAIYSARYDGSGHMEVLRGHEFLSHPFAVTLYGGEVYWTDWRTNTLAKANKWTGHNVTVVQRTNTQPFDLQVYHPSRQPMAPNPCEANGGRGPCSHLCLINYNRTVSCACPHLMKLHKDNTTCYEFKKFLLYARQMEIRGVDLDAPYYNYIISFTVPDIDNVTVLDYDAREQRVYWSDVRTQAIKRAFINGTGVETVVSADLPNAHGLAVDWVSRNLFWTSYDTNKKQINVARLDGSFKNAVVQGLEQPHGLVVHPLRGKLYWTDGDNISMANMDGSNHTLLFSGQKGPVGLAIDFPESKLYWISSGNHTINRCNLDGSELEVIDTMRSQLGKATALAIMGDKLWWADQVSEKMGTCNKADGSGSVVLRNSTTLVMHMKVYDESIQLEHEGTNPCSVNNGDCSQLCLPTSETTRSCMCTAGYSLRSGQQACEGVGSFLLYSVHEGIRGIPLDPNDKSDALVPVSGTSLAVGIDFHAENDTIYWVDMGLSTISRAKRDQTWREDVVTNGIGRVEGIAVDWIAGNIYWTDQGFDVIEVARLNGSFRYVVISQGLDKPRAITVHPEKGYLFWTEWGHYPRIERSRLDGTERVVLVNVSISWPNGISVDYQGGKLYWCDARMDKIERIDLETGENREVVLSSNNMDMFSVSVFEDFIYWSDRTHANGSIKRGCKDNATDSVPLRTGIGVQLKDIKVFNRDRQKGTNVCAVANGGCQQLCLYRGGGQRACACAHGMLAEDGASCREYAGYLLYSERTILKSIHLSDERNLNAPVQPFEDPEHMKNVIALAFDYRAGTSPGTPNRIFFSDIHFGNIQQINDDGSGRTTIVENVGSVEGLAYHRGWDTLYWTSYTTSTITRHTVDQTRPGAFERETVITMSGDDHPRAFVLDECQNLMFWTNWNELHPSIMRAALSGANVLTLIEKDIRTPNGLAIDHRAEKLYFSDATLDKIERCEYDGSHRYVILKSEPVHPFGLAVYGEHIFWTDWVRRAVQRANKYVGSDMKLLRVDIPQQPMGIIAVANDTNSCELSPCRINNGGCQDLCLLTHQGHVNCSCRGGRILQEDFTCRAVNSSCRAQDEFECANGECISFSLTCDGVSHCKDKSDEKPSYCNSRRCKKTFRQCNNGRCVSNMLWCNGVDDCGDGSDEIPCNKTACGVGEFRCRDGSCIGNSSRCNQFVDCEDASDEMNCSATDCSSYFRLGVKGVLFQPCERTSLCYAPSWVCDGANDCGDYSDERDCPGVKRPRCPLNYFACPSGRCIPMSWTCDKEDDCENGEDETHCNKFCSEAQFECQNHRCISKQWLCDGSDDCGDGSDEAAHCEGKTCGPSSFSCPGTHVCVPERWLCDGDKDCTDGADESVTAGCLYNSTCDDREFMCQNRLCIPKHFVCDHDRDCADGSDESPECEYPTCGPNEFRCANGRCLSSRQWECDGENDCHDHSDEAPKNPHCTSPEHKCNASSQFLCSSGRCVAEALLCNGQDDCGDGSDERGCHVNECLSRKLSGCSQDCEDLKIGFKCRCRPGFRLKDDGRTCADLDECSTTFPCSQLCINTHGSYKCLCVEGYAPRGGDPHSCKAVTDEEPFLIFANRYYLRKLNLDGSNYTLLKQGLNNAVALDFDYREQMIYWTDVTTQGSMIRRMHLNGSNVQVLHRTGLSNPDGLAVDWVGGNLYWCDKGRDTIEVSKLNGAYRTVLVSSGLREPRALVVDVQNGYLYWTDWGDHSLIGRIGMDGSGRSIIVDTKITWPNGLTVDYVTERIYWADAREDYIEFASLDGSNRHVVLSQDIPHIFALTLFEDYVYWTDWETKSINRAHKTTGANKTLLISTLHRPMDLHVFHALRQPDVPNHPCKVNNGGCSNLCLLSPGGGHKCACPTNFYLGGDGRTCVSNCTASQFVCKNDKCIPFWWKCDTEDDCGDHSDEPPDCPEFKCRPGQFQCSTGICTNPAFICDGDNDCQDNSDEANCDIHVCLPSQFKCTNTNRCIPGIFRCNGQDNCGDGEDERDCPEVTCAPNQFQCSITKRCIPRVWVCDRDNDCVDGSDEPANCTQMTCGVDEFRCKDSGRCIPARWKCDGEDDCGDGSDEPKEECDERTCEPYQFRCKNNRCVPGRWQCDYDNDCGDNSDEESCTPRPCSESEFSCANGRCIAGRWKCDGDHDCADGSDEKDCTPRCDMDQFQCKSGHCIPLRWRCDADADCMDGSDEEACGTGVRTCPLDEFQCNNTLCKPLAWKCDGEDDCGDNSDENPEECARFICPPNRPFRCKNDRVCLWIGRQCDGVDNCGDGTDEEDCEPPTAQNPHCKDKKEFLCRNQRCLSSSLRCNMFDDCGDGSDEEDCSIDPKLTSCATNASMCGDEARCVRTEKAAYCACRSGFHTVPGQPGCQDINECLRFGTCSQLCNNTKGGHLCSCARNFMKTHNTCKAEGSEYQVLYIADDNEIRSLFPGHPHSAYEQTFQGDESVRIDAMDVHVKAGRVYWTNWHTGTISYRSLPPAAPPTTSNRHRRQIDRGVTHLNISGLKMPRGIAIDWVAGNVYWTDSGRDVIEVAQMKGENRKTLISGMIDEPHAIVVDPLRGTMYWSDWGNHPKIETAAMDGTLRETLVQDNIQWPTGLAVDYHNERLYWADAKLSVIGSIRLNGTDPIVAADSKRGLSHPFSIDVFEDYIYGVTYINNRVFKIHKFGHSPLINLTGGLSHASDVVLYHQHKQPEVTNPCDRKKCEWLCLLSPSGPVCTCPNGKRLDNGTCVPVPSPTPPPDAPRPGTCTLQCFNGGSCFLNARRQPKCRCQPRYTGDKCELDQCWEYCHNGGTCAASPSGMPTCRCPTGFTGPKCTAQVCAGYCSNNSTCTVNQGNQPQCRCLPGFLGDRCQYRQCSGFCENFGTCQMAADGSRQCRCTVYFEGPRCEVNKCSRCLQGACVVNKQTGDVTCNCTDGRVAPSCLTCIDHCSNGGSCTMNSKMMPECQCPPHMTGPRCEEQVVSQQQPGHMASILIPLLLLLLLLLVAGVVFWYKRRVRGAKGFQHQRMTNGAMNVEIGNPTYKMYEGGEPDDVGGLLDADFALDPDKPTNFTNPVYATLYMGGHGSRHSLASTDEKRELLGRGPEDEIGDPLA", "assay": "cell-based or functional assay", "data": [{"substance": "calreticulin (CRT) (ligand)", "values": [{"measurement": "IFN alpha MFI (Fold Change), RAW264.7 M1 macrophages pulsed with calreticulin 10 ug/ml for 20 min", "result": 7.5, "unit": "fold"}, {"measurement": "IFN beta MFI (Fold Change), RAW264.7 M1 macrophages pulsed with calreticulin 10 ug/ml for 20 min", "result": 7, "unit": "fold"}, {"measurement": "IL-12 MFI (Fold Change), RAW264.7 M1 macrophages pulsed with calreticulin 10 ug/ml for 20 min", "result": 3.5, "unit": "fold"}, {"measurement": "IL-15 MFI (Fold Change), RAW264.7 M1 macrophages pulsed with calreticulin 10 ug/ml for 20 min", "result": 3.5, "unit": "fold"}]}]}
